According to paper PMC4227792 (Nucleic Acids Research, 2014):
Residue numbers refer to the chain shown, from its start. One block for each binder: values may come before it.

What was measured:
[1] = target: T1, His6-Rrp41 of Sulfolobus solfataricus (Sulfolobus solfataricus, UniProt Q9UXC2 1-248); assay: pull-down; subunits of the reconstituted Strep-Csl4 exosome (purified His6-Rrp41, His6-Rrp42 and Strep-tagged Csl4 mixed in buffer P0) recovered on Strep-Tactin Sepharose through Strep-Csl4, E. coli cell-free extract with DnaG-K6AY7A present; eluted with D-desthiobiotin; silver-stained SDS-PAGE; conditions: both partners purified
T1 sequence (looked up): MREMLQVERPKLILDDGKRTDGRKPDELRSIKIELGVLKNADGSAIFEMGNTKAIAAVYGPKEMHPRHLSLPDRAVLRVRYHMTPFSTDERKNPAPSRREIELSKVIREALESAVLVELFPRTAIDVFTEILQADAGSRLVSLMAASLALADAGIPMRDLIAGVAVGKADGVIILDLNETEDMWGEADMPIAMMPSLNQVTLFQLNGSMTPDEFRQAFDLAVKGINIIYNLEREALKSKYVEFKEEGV

[2] = target: T2, His6-Rrp42 of Sulfolobus solfataricus (Sulfolobus solfataricus, UniProt Q9UXC0 1-275); assay: as above; conditions: both partners purified
T2 sequence (looked up): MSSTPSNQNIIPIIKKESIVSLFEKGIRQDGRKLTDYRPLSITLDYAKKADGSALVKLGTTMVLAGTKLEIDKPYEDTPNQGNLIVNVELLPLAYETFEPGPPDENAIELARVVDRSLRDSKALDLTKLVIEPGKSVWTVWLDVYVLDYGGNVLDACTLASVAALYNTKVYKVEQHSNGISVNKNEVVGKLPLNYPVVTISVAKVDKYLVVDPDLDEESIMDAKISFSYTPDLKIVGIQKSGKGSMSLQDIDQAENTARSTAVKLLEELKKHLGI

Csl4-NT = target: T3, Csl4-NT (Saccharolobus (Sulfolobus) solfataricus, UniProt Q980J9 1-189+=V+P95980:2-156, internal_change); assay: EMSA; 25 fmol RNA; 20 mM HEPES pH 7.9, 60 mM KCl, 10 mM MgCl2, 10% glycerol, 2 mM DTT, 0.1 mM EDTA; room temperature 5 min, 10 ul; 5% native PAA gel at 4 C
T3 sequence: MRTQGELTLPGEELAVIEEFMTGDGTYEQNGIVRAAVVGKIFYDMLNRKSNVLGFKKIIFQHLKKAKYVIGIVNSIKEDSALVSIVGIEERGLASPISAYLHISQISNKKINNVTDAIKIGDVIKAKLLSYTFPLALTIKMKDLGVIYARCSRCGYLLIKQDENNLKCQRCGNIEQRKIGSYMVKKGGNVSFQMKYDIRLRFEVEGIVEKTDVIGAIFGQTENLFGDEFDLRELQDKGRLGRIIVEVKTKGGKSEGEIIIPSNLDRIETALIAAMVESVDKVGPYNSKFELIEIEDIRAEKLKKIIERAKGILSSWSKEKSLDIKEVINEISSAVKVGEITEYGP

Csl4 = target: T4, Csl4 (Saccharolobus (Sulfolobus) solfataricus, UniProt Q980J9 1-189); assay: as above
T4 sequence: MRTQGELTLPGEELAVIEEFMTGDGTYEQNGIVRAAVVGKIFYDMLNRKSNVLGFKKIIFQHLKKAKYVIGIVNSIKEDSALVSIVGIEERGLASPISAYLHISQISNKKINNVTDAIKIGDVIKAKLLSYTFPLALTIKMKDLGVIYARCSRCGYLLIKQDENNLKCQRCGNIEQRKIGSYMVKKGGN

DnaG [3] = target: T5, DnaG (Saccharolobus (Sulfolobus) solfataricus, UniProt P95980 1-406); assay: EMSA; 25 fmol RNA, 2.5 pmol protein; 20 mM HEPES pH 7.9, 60 mM KCl, 10 mM MgCl2, 10% glycerol, 2 mM DTT, 0.1 mM EDTA; room temperature 5 min, 10 ul; 5% native PAA gel at 4 C
T5 sequence: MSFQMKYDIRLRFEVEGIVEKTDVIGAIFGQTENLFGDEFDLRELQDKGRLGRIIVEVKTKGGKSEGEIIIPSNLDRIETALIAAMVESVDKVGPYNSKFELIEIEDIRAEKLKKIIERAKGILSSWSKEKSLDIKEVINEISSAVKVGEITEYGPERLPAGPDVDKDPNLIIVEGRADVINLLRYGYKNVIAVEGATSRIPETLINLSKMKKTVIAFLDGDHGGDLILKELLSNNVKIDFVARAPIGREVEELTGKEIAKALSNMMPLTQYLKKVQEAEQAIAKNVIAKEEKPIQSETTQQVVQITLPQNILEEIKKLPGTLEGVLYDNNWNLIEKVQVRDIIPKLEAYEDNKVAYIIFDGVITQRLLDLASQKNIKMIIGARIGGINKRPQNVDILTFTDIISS

DnaG-K6AY7A = target: T6, DnaG-K6AY7A (Saccharolobus (Sulfolobus) solfataricus, UniProt P95980 1-406, K6A;Y7A); assay: as above
T6 sequence: T5 sequence with K6A, Y7A

DnaG [4] = target: T5, DnaG; assay: EMSA; 25 fmol DNA, 2.5 pmol protein; 20 mM HEPES pH 7.9, 60 mM KCl, 10 mM MgCl2, 10% glycerol, 2 mM DTT, 0.1 mM EDTA; room temperature 5 min, 10 ul; 5% native PAA gel at 4 C

binding result [1]: binds
binding result [2]: binds
B1: Strep-tagged Csl4 of Sulfolobus solfataricus (natural protein, UniProt Q980J9 1-189, looked up)
chain: T4 sequence

Binder: AAAAAAAAAAAAAAAAAAAAAAAAAAAAAA (ssRNA) [poly(rA)30]
binding result (Csl4-NT): binds
binding result (Csl4): no binding
binding result (DnaG [3]): binds
binding result (DnaG-K6AY7A): no binding

Binder: AAAAAAAAAAAAAAAAAAAAAAAAAAAAAA (ssDNA) [poly(dA)30]
binding result (DnaG [4]): no binding
